Measurements reported in patent US20050158799A1 (published 2005).

Biological target: T1, TLR3-YFP (Toll-Like Receptor 3 fused to yellow fluorescent polypeptide), stably expressed in HELA cells (UniProt O15455 24-904)
T1 construct: Immunoprecipitated from whole cell lysates with anti-GFP antibody; not shown: yellow fluorescent polypeptide (YFP)
T1 sequence (looked up): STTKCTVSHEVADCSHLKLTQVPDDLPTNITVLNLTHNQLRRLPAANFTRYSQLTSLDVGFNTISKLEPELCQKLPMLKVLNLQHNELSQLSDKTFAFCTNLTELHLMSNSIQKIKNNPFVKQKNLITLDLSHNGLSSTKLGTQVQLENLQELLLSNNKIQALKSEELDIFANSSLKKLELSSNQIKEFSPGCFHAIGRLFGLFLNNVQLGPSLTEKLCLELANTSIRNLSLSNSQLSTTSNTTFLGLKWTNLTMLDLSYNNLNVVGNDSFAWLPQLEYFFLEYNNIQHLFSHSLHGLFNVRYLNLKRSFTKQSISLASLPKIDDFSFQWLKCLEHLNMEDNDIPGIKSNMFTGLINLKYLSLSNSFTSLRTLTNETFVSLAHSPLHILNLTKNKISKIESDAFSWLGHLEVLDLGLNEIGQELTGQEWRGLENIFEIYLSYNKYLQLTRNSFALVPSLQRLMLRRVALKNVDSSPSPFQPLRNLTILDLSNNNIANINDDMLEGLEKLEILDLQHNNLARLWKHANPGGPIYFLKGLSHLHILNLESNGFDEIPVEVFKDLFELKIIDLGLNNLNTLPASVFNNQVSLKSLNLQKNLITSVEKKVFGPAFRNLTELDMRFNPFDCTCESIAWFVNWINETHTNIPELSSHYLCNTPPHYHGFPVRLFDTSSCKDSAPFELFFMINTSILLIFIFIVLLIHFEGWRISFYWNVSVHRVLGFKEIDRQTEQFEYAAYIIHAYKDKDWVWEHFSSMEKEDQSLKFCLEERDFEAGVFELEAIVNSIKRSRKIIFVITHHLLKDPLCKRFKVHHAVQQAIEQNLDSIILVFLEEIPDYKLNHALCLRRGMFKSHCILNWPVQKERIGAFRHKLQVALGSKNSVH
Assay: co-immunoprecipitation from TLR3-YFP HELA cell lysates with anti-GFP, blot for Flag
Description: 293T cells or TLR-expressing cells (10 cm plates) were transfected using GeneJuice (Novagen) with 4 μg of the indicated plasmids. One to two days after transfection, the cells were lysed in 1 ml of lysis buffer (20 mM Tris-HCl, 2 mM EDTA, 137 mM NaCl, 0.5% Triton X-100, 10% glycerol with protease inhibitors). Polyclonal anti-GFP (Molecular Probes), anti-IRF-3 or anti-CBP antibodies were incubated overnight with the cell lysates in […]. The immune complexes were precipitated and subjected to 4-15% SDS-PAGE and immunoblotted for FLAG- or CFP/YFP-tagged adapters using the anti-Flag mAb M2 (Sigma), or anti-GFP mAb (Clontech), which also recognizes the spectral variants of GFP.
Co-immunoprecipitation studies were performed to determine if TRAM interacts with TLR4. Stable TLR4^YFP- or TLR3^YFP-expressing HELA cells were transiently transfected with 4 μg of plasmid encoding Flag-Mal, Flag-TRAM or Flag TRAM-C117H. Forty-eight hours after transfection, whole cell lysates were immunoprecipitated with anti-GFP antibody and immunoprecipitated complexes immunoblotted for Flag-tagged adapters and co-immunoprecipitation experiments performed.

binding result: no binding
B1: Flag-tagged Mal (MyD88 adaptor-like; TIRAP) (other, UniProt P58753-2 1-235, looked up)
chain: MASSTSLPAPGSRPKKPLGKMADWFRQTLLKKPKKRPNSPESTSSDASQPTSQDSPLPPSLSSVTSPSLPPTHASDSGSSRWSKDYDVCVCHSEEDLVAAQDLVSYLEGSTASLRCFLQLRDATPGGAIVSELCQALSSSHCRVLLITPGFLQDPWCKYQMLQALTEAPGAEGCTIPLLSGLSRAAYPPELRFMYYVDGRGPDGGFRQVKEAVMRCKLLQEGEGERDSATVSDLL
notes: pEF-Bos-Flag Mal as described in Fitzgerald et al; also called Flag-Mal; pEF-Bos-Flag Mal; not shown: Flag tag
